Measured values taken from patent US20190194268A1 (DONALD DANFORTH PLANT SCIENCE CENTER, published 2019).

What was measured:
F. graminearum = format: cell-based, Fusarium graminearum; conditions: γ-core motif variants
F. graminearum PH-1 = format: cell-based, Fusarium graminearum; conditions: γ-core motif variants

B1: MtDef5FL1_V1 (other)
chain: KLCQAASTTWSGPCLNTGNCKRQCINVEHATFGACAAQGFGFACFCYKKCAPKKVEPKLCEAASKTWSGPCLISGNCKRQCINVEHATSGACAAQGIGFACFCKKKC
notes: Alanine variant expressed in P. pastoris; also called MtDef5FL1 γ-core motif variant V1
For B1, the “ability to permeabilize the plasma membrane (SG uptake) compared with wild-type MtDef5FL1” value (F. graminearum) was “lost its ability to permeabilize the fungal plasma membrane almost completely” and the “reduction in antifungal activity against F. graminearum relative to wild-type MtDef5FL1” value (F. graminearum PH-1) was 4 fold.
